Test results published in US7153676B1, “Transacylases of the paclitaxel biosynthetic pathway” (priority 1999, dated 2006).

Substrate: CC(=O)SCCNC(=O)CCNC(=O)[C@H](O)C(C)(C)COP(=O)(O)OP(=O)(O)OC[C@H]1O[C@@H](n2cnc3c(N)ncnc32)[C@H](O)[C@@H]1OP(=O)(O)O
Test: purified protein, by the assay type
Details: other: Lineweaver-Burk analysis, partially purified recombinant TAX6

B1: 10-deacetylbaccatin III-10-O-acetyl transferase (TAX6) (Taxus cuspidata) (protein)
chain: MAGSTEFVVRSLERVMVAPSQPSPKAFLQLSTLDNLPGVRENIFNTLLVYNASDRVSVDPAKVIRQALSKVLVYYSPFAGRLRKKENGDLEVECTGEGALFVEAMADTDLSVLGDLDDYSPSLEQLLFCLPPDTDIEDIHPLVVQVTRFTCGGFVVGVSFCHGICDGLGAGQFLIAMGEMARGEIKPSSEPIWKRELLKPEDPLYRFQYYHFQLICPPSTFGKIVQGSLVITSETINCIKQCLREESKEFCSAFEVVSALAWIARTRALQIPHSENVKLIFAMDMRKLFNPPLSKGYYGNFVGTVCAMDNVKDLLSGSLLRVVRIIKKAKVSLNEHFTSTIVTPRSGSDESINYENIVGFGDRRRLGFDEVDFGWGHADNVSLVQHGLKDVSVVQSYFLFIRPPKNNPDGIKILSFMPPSIVKSFKFEMETMTNKYVTKP
Which Km does the source give for B1 here?
The Km was 8 µM.
